Assay results published in patent EP2974737A1 (Ablynx N.V., dated 2016).

Assays:
Test in all cases: SPR, interference factor immobilized; % of Fig. 9 reference
[1] = biological target: T1, purified interference factor(s) from Donor A (human)
T1 construct: also called interference in serum from Donor A

[2] = biological target: T2, purified interference factor(s) from Donor B (human)
T2 construct: the text names the donors 8, 19 and 30; also called interference in serum from Donor B

[3] = biological target: T3, purified interference factor(s) from Donor C (human)
T3 construct: the text names the donors 8, 19 and 30; also called interference in serum from Donor C

Binder	interference binding, % of Reference Sequence [1] [%]	interference binding, % of Reference Sequence [2] [%]	interference binding, % of Reference Sequence [3] [%]
SEQ ID NO: 42 (VHH) EVQLVESGGGLVQPGGSLRLSCAASGRTFSYNPMGWFRQAPGKGRELVAAISRTGGSTYYPDSVEGRFTISRDNAKRMVYLQMNSLRAEDTAVYYCAAAGVRAEDGRVRTLPSEYTFWGQGTQVTVSSAAAEVQLVESGGGLVQPGGSLRLSCAASGRTFSYNPMGWFRQAPGKGRELVAAISRTGGSTYYPDSVEGRFTISRDNAKRMVYLQMNSLRAEDTAVYYCAAAGVRAEDGRVRTLPSEYTFWGQGTQVTVSSA	1	4	
SEQ ID NO: 47 (VHH) VHH: EVQLVESGGGLVQPGGSLRLSCAASGSVFKINVMAWYRQAPGKGRELVAGIISGGSTSYADSVKGRFTISRDNAKNTLYLQMNSLRPEDTAVYYCAFITTESDYDLGRRYWGQGTLVTVSS	1		
SEQ ID NO: 38 (VHH) EVQLVESGGGLVQPGGSLRLSCAASGFTFSSYAMSWVRQAPGKGLEWVSGIKSSGDSTRYAGSVKGRFTISRDNAKNTLYLQMNSLRPEDTAVYYCAKSRVSRTGLYTYDNRGQGTLVTVSSGGGGSGGGGSGGGGSGGGGSEVQLVESGGGLVQPGGSLRLSCAASGRTFNNYAMGWFRQAPGKEREFVAAITRSGVRSGVSAIYGDSVKDRFTISRDNAKNTLYLQMNSLRPEDTAVYYCAASAIGSGALRRFEYDYSGQGTLVTVSSA	9	25	7
SEQ ID NO: 65 (VHH) VHH: EVQLVESGGGLVQAGGSLRLSCAASRSIGRLDRMGWYRHRPGEPRELVATITGGSSINYGDSVKGRFTISIDNSKNTVYLQMNSLRPEDTAVYYCNFNKYVTSRDTWGQGTLVTVSS	73	121	64
SEQ ID NO: 81 (VHH) VHH: EVQLVESGGGVVQPGGSLRLSCAASRSIGRLDRMGWYRHRPGEPRELVATITGGSSINYGDSVKGRFTISIDNSKNTVYLQMNSLRPEDTAVYYCNFNKYVTSRDTWGQGTLVTVSS	94	50	89
SEQ ID NO: 73 (VHH) VHH: EVQLVESGGGLVQPGGSLRLSCAASRSIGRLDRMGWYRHRPGEPRELVATITGGSSINYGDSVKGRFTISIDNSKNTVYLQMNSLRPEDTAVYYCNFNKYVTSRDTWGQGTLVTVGG	6	8	9
SEQ ID NO: 68 (VHH) VHH: EVQLVESGGGLVQAGGSLRLSCAASRSIGRLDRMGWYRHRPGEPRELVATITGGSSINYGDSVKGRFTISIDNSKNTVYLQMNSLRPEDTAVYYCNFNKYVTSRDTWGQGTQVTVSS	38	115	49
SEQ ID NO: 75 (VHH) VHH: EVQLVESGGGLVQPGGSLRLSCAASRSIGRLDRMGWYRHRPGEPRELVATITGGSSINYGDSVKGRFTISIDNSKNTVYLQMNSLRPEDTAVYYCNFNKYVTSRDTWGQGTLVTVSS	1	11	16
SEQ ID NO: 70 (VHH) VHH: EVQLVESGGGLVQPGGSLRLSCAASRSIGRLDRMGWYRHRPGEPRELVATITGGSSINYGDSVKGRFTISIDNSKNTVYLQMNSLRPEDTAVYYCNFNKYVTSRDTWGQGTLVQVSS	90	105	98
SEQ ID NO: 72 (VHH) VHH: EVQLVESGGGLVQPGGSLRLSCAASRSIGRLDRMGWYRHRPGEPRELVATITGGSSINYGDSVKGRFTISIDNSKNTVYLQMNSLRPEDTAVYYCNFNKYVTSRDTWGQGTLVTVGG	70	47	56
SEQ ID NO: 79 (VHH) VHH: EVQLVESGGGLVQPGGSLRLSCAASRSIGRLDRMGWYRHRPGEPRELVATITGGSSINYGDSVKGRFTISIDNSKNTVYLQMNSLRPEDTAVYYCNFNKYVTSRDTWGQGTLVTVSS	1	17	13
SEQ ID NO: 66 (VHH) VHH: EVQLVESGGGSVQPGGSLRLSCAASRSIGRLDRMGWYRHRPGEPRELVATITGGSSINYGDSVKGRFTISIDNSKNTVYLQMNSLRPEDTAVYYCNFNKYVTSRDTWGQGTLVTVSS	81	29	84
SEQ ID NO: 77 (VHH) VHH: EVQLVESGGGLVQPGGSLRLSCAASRSIGRLDRMGWYRHRPGEPRELVATITGGSSINYGDSVKGRFTISIDNSKNTVYLQMNSLRPEDTAVYYCNFNKYVTSRDTWGQGTLVTVSS	2	12	13
SEQ ID NO: 74 (VHH) VHH: EVQLVESGGGLVQPGGSLRLSCAASRSIGRLDRMGWYRHRPGEPRELVATITGGSSINYGDSVKGRFTISIDNSKNTVYLQMNSLRPEDTAVYYCNFNKYVTSRDTWGQGTLVTVSS	4	41	33
SEQ ID NO: 67 (VHH) VHH: EVQLVESGGGLVQPGGSLRLSCAASRSIGRLDRMGWYRHRPGEPRELVATITGGSSINYGDSVKGRFTISIDNSKNTVYLQMNSLKPEDTAVYYCNFNKYVTSRDTWGQGTLVTVSS	102	117	96
SEQ ID NO: 78 (VHH) VHH: EVQLVESGGGLVRPGGSLRLSCAASRSIGRLDRMGWYRHRPGEPRELVATITGGSSINYGDSVKGRFTISIDNSKNTVYLQMNSLRPEDTAVYYCNFNKYVTSRDTWGQGTLVTVSS	96	96	100
SEQ ID NO: 82 (VHH) VHH: EVQLVESGGGLVQPGGSLRLSCAASRSIGRLDRMGWYRHRPGEPRELVATITGGSSINYGDSVKGRFTISIDNSKNTVYLQMNSLRAEDTAVYYCNFNKYVTSRDTWGQGTLVTVSS	96	80	100
SEQ ID NO: 76 (VHH) VHH: EVQLVESGGGLVQPGGSLRLSCAASRSIGRLDRMGWYRHRPGEPRELVATITGGSSINYGDSVKGRFTISIDNSKNTVYLQMNSLRPEDTAVYYCNFNKYVTSRDTWGQGTLVTVSS	2	17	20
SEQ ID NO: 69 (VHH) VHH: EVQLVESGGGLVQPGGSLRLSCAASRSIGRLDRMGWYRHRPGEPRELVATITGGSSINYGDSVKGRFTISIDNSKNTVYLQMNSLRPEDTAVYYCNFNKYVTSRDTWGQGTQVTVSS	80	120	84
SEQ ID NO: 71 (VHH) VHH: EVQLVESGGGLVQPGGSLRLSCAASRSIGRLDRMGWYRHRPGEPRELVATITGGSSINYGDSVKGRFTISIDNSKNTVYLQMNSLRPEDTAVYYCNFNKYVTSRDTWGQGTLVTVSG	88	105	87
SEQ ID NO: 80 (VHH) VHH: EVQLVESGGGLVQPGGSLRLSCAASRSIGRLDRMGWYRHRPGEPRELVATITGGSSINYGDSVKGRFTISIDNSKNTVYLQMNSLRPEDTAVYYCNFNKYVTSRDTWGQGTLVQVGG	65	5	58
SEQ ID NO: 43 (VHH) DVQLVESGGGLVQPGGSLRLSCAASGFILDYYAIGWFRQAPGKEREGVLCIDASDDITYYADSVKGRFTISRDNSKNTVYLQMNSLRPEDTAVYYCATPIGLSSSCLLEYDYDYWGQGTLVTVSSGGGGSGGGSEVQLLESGGGLVQPGGSLRLSCAASGFTFRSFGMSWVRQAPGKGPEWVSSISGSGSDTLYADSVKGRFTISRDNSKNTLYLQMNSLRPEDTAVYYCTIGGSLSRSSQGTLVTVSSA	3	20	
